Where two headings read alike, the source gives them in different places.
Key:
Assay in all cases: SPR, steady state
human IL-2Rβ (human) [1] = target: human IL-2Rβ (human) (UniProt P14784)
human IL-2Rβ (human) [2] = target: human IL-2Rβ (human) (UniProt P14784); remark: listed apart in the source
human IL-15Rα (human) = human IL-15Rα (human) (UniProt Q13261)
human IL-15Rα (human), sequence (Q13261 31-205 limits assumed): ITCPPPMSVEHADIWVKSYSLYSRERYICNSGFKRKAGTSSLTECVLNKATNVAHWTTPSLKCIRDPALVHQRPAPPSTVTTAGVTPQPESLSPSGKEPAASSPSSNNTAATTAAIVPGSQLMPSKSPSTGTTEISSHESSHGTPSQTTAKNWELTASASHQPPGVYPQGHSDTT

human IL-2Rβ (human), sequence (P14784 27-240 limits assumed): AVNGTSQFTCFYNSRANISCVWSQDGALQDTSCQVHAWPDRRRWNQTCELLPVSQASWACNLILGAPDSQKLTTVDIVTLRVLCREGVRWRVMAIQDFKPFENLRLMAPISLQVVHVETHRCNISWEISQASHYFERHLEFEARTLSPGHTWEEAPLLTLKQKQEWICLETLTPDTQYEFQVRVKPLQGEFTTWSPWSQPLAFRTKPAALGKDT

Substance	Kd (human IL-2Rβ (human) [1])	Kd (human IL-2Rβ (human) [2])	Kd (human IL-15Rα (human))
IL-15Rasu-IL-15 (non-fusion, wild-type) (from UniProt Q13261 31-95)	54.4 nM	69.6 nM	
hIL-15 V49R/E64 N/S (ligand)	> 500 nM		130 nM

Reference: patent US20210324028A1
